Laboratory results: article PMC7260724, “ABAS1 from soybean is a 1R-subtype MYB transcriptional repressor that enhances ABA sensitivity”

T1: GST-GmABAS1 (Glycine max/soja (soybean; the cloned …, UniProt A0A3Q9B5G2 1-289)
T1 sequence: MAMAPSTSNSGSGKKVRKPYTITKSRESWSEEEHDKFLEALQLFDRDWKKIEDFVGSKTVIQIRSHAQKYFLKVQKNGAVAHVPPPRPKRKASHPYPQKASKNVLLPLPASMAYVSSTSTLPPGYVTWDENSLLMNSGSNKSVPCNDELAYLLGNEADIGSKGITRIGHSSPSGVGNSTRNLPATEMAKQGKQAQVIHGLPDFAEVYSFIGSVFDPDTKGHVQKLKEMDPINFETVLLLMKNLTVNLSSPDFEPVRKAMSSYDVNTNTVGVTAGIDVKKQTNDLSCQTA

B1: Glyma.01G060300 native probe (dsDNA)
DNA 1: TGAAAAATCGTGTCAGTGTCGCCACGTG
DNA 2: CACGTGGCGACACTGACACGATTTTTCA
B2: Glyma.01G060300 native probe, 6-FAM (dsDNA)
DNA 1: TGAAAAATCGTGTCAGTGTCGCCACGTG
DNA 2: CACGTGGCGACACTGACACGATTTTTCA

Legend:
GST-GmABAS1 [1] = biological target: T1, GST-GmABAS1; assay: EMSA; 150 mM KCl, 10 mM Tris pH 7.4, 0.1 mM EDTA, 0.1 mM DTT, EDTA-free protease inhibitor; room temperature 20 min; 6% (non-competitive) or 10% (competitive) acrylamide gel in TBE; details: protein: recombinant; tags: N-terminal GST (pGEX-4T-1); label: none (SYBR Green stain); blunt
GST-GmABAS1 [2] = biological target: T1, GST-GmABAS1; assay: EMSA; 72 pmol protein, 10 pmol probe; 150 mM KCl, 10 mM Tris pH 7.4, 0.1 mM EDTA, 0.1 mM DTT, EDTA-free protease inhibitor; room temperature 20 min; 6% (non-competitive) or 10% (competitive) acrylamide gel in TBE; details: protein: recombinant; tags: N-terminal GST (pGEX-4T-1); blunt

| Binder | binding result (GST-GmABAS1 [1]) | binding result (GST-GmABAS1 [2]) |
| --- | --- | --- |
| B1 | binds | – |
| B2 | – | binds |
